Experimental findings from the DeepSol protein solubility set are described below.

The data set can be described thus: soluble on expression in E. coli; label from the status in PepcDB or PDB records.
Regarding “GPGSMEEFYGMEVFAGKTAKPNISADRVLHVTQVALPPNASHAITLLVKTEGKSFVLATLDPQQALFHVSVDMLFSGKQKLAFTCEGATGAVHIIGYTQLAEEEEDAIDDEDDDDMMDDEDVA”, the “soluble on expression in E. coli” value is on record as “soluble”.

Take “MFCKRFIALVTMLTLVCSMLLPYSNASAETGSALNIEAGAAILVEANSGKILYQKNADELLSIASMTKMMSEYLVHEAVDKGKFKWDQKIKVSEYAYKVSQDASLSNVALENGGSYTVKELYEAMAIFSANGATIALAEAIAGKEVDFVKMMNDKSKELGLKNYKFVNSTGLTNKDLKGMHPEGTTADEENKMSAKDVATLAQHLIKDYPKVLDTAKIPKKEFRPEKEKFAMSNWNWMLKGLVKEYDGVDGLKTGSTPEAGDCFTGTVERNGMRFISVVIKTSSHTARFDETKKLYDYGFANFEMKQMYKKGSSVKGQETVRVENAKDKDVAVQTKQAISLPVPKGSKEVYKTELKESSKGQEAPIKKGAALGQMVITPKDTNDPGFLTGKSLQVDLVTTSEVEEANWFTRAMRGIGSFFSGIWNSAVDTVKGWF”: the “soluble on expression in E. coli” value is “not soluble”. Under “IGKLKLSARGTFTFTRNKILEYDELPQKYGYQAVTGTRVSENTLYIADRLYTEDDFIVSTNANGLKTYKLRSELPRPTLGGLIGPGDIKYVDVNGDGVIDSYDQVRGVGNPSTPEIIYGFGLNAEYKGFYASIFFQGAGNTSVLLGGATSEGWYPFSWGVDQSNYRTFALDRWTENNPSQDVIIPRLHKNNANNANNRVASTWWLRNGSFLRLKNIEFGYQLPKKFMDKIGFEAARIYIMGYNLAVWDDIKYFDPEAGNANAGLNYPLPRTFTLGLDFTF” stands “not soluble”.

With “SASERIIEKTPENSKFHKHQQKNYPLMSILKFHCRLLRCVSRCFTGITISYPATKHGYTKFEKLEDPLTGYTNMKRTIILDLDETLVHATTHLPGVKHDFMVMVKMEREIMPIFVVKRPGVTEFLERLGENYKVVVFTAGLEEYASQVLDKLDKNGVISQRLYRDSCTEVNGKYVKDLSLVVGKDLRSALIVDDNPSSYSLQPENGVPIKAFVDDLKDQELLNLVEFLESCYAYEDMRDAVTDLLAN”, the “soluble on expression in E. coli” value is “soluble”. To “MVAGGFGVGKTTLIGSVSEVRPLRMEEPITQASAGVDDLRGTPHKTTTTVAMDFGRIHMAGGRLALYLFGLPGQSRFQPLWEDLAEGALGCLVLADTRDLDASHDALGLLDGAGIPYAVAINTFPGSPSYPEAELREALALEPATPLTYCDARDRTSSLHALITLTEYLSEHRSAALLESRRLEHHHHHH” belongs “not soluble”; to “MAASTSSSSSSSSSSLSSPSPCTWRYMTFTSFHGPDVRNTFLSHLRKQFNTNGITMFDDQRMERSQTLAPTLTQAIRESKIYIVLLSKNYASSSWCLDELLEILNCKEKRGQRVMTIFYGVNPSDVRKQTGEFGIAFNETCARKTEEERRKWSHALTCVGNITGVHVQDRDDEANMIEKIATDVSEKLNATESKDFDEMVGIKAHLTKIESLLSLDYDKVKIVGISGPAGIGKSTIARALHNLLSSSFHLSCFMENLISQSNPHSSLEYSSKLSLQEQLLSQVLNEKDIRIRHLGAIQERLHDQRVLIILDDVTSLEQLEVLANIKWYGPGSRIIVITKKKDILVQHGICDIYHVGFPTDADALKIFCLSAYRQTSPPDGSMKIHECEMFIKICGNLPLHLHVLGSALRGRSYGRVQSLCNLVSLADFV”, “not soluble”.

“MGSDKIHHHHHHMETPTQDMDVRWLYTQSQLKLREILPTNKTFDVIQISELVDPTDFISPNSVVLSVGIAFAETPDGLRDWAHRLADAGVIAIGFGSGLTFPQVPQALIDASLHLGLGLFEVPREIPFISITSSVRDEQTRRAGRLQQELLLEQERLNSIAISGGIEALCRAAADYLGGAVAIVDSDGRVACSITTDDLDALPQAVSRLNGSSQALTDATNFGFIHRMTRYGDRHHVLSVLMPTRPSEQHRALIRHCAGLADILLQRPEAMRDREIEVRSLAMSLLLGRSDDLATIHRVFADITDASGNIRPILITGNTPQSVRKALSSVATALYKQERALAHLRLAESTELLFLRGSRSVHNIVQLFGTAASGVRLCIGLPTRAENIDKKLIRELTATAKTLQLGTHAEPRDGTLLWLQNPELRKILKIRSRDTYDRLLDHDRTNNTELAPTLVSFTQHSGHIGDTAKELGIHRHTVRTRMIRIEEICEIDLNDPLTRAELLLVIATKEGDVEKQ”: the “soluble on expression in E. coli” value was “not soluble”. To “MSNDGDLNIDNLITRLLEVRGCRPGKPVTMSEAEIRALCHKSREIFLSQPILLELEAPLKICGDIHGQYNDLLRLFEYGGFPPEANYLFLGDYVDRGKQSLETICLLLAYKVKYPENFFLLRGNHECASINRIYGFYDECKRRFSIKLWKTFTDCFNCLPIAALIDEKIFCCHGGLSPDLQNMEQIRRVMRPTDVPDTGLLCDLLWSDPDKDVTGWGENDRGVSFTFGPDVVAKFLNRHDLDLICRAHQVVEDGYEFFAKRQLVTLFSAPNYCGEFDNAGGMMSVDETLMCSFQILKPSEKKAKYQYQGMNSGRPAVGGGRPGTTAGKK” belongs “not soluble”; to “MITYKNILIAVDGSHEAEWAFNRAVGVAKRNDAKLTIVNVIDSRTYSSYEVYDAQFTEKSKHFAEELLNGYKEVATNAGVKDVETRLEFGSPKSIIPKKLAHEINADLIMSGTSGLNAVERFIVGSVSESIVRHAPCDVLVVRTEELPADFQPQVATTQLREKYQN”, “not soluble”.

On to “ISFVIAAPEAIAAAATDLASIGSTIGAANAAAAANTTAVLAAGADQVSVAIAAAFGAHGQAYQALSAQAATFHIQFVQALTAGAGSYAAAEAASAASITSPLLDAINAPFLAALGRPLIGNGADGAPGTGAAGGAGGLLFGNGGAGGSGAPGGAGGLLFGNGGAGGPGASGGALG”, for which the “soluble on expression in E. coli” value is recorded as “not soluble”. Turning to “MGSDKIHHHHHHMSLQRPDEKLKSDVLIGVGLRHQHFTEALTTPSNIDFVEVHSENFFAQGGATQSVLAQASEKYAISLHSTAMGLGSAQGVPSHYLQKLKQLASTCNPILMSDHACFSWSQLKGQQVHAGDLLPLAYSEQTLMVLSHNIDRVQQSLGRSLLVENLSAYIQYSHACMPETEFLVRLAELTGCKLLVDLNNIIVTANNINAAQPLDYAQQWLAEIPTDMVGEIHLAGFTEVKEGELIIDDHSQAVSSQGWQLYRSALERFGKIPTLVEWDNNLPSWHTLVAEADKARMIAKQVFGDNNSSKITTAMTGLESEFIHE”, the “soluble on expression in E. coli” value is on record as “not soluble”. To “MGSDKIHHHHHHMTSQLNELVEFLHSPQPAVRQIAIDNLVGFSAGPTSKVFKNDSYRPIKDIIKMIMDPEHGTRVIIQQGVTILVNLSEDKLVRNIILSDDKKFLKFLVWKIVDLTNPNADIMCILLSNLAKDDGILAVLNIKRNSSGEEVDDGLKLAALNKEVFKSLRAMDCLMDCFVKGYDKKLTKYASFNYLAFFFADISRFKLGRMYFIEEQEYDGVVPISKLLVFTEKYDAKVRREGVASTIKNSLFDSETHERLLKDEKINLLPYILLPIASAKDSEIDEEDMFNLPDELQLLPEDKERDPIPAIICCHLESILLLCTTHAGREYLRDKSVYPLVRELHKNVENEDIGELCYRIVNMLMRGEPGAGAVEEMPSKNAEEEEEEESEEEEDDDEEDEIVEVA” belongs “not soluble”; to “MSLITIGITGGIGSGKSVVSRILLTLGIPVYDSDSRAKWLNDHSPVVRQALTGLIGSDLYENGILRRDRLAAAIFSSGDLLEQVNGIIHPEVKKDFCQWRSECESDLCAIESAILFSSGFNSLCDTVIRVDAPEKIRQERAMARDGSSAETMRQRMLSQEREQSLAKAGADHTVLNAPPHLLVPQVVRIIETVRTKRPNPPDEGHHHHHH”, “soluble”; to “MGSDKIHHHHHHMSRAIPAMPLAPASAALDLSKVKTLVCEPSLPIRQGIRLALNNVGIRDITEATTFLAAHQACKEGDHDFLLLNQEIETNDTAFMVRELRSGALGRDPFILTVMLLSSREEPKVRSAIDCGPDDLLLIPFAPDQLMNRLKAQIERRKPFVVTHDYIGPDRRAAPRPGATSATQFQVPNPVRARGTNVPRDRYDRMKQESIVTISVERIKRLAATMDWECNALTVSAREGRMTPESTYRSLLKLEQVTAELSLRVTKQLGHSTETIDSLTQYLPPVEDGSEQCKLFRC”, “not soluble”.
